The labels stand for the following.
T1: human TIM-3 (T-cell immunoglobulin mucin receptor 3) (human, UniProt Q8TDQ0 22-202, limits assumed)
T1 sequence (looked up): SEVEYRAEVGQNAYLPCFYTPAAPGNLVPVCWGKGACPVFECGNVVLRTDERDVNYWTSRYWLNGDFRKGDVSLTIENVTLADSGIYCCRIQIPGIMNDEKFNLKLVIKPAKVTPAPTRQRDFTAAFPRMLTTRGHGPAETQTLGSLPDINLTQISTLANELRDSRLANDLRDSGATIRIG

B1: anti-TIM-3 IgG1 antibody 64-15 (antibody, V domains shown)
VH: EVQLVESGGGLVQPGGSLRLSCAASGFTFSSYYMHWVRQAPGKGLEWVSGISGSGGSTYYADSVKGRFTISRDNSKNTLYLQMNSLRAEDTAVYYCARGRGAWPFTRVVAFDVWGQGTLVTVSS
VL: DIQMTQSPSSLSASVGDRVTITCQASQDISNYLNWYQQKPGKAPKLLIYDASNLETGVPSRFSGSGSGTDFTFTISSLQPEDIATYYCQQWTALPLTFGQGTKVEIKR
notes: human IgG1; also called aTIM-3 IgG1 64-15
B2: anti-TIM-3 IgG1 antibody 64-6 (antibody, V domains shown)
VH: EVQLVESGGGLVQPGGSLRLSCAASGFTFSRYAMHWVRQAPGKGLEWVSAISGSGGYTYYADSVKGRFTISRDNSKNTLYLQMNSLRAEDTAVYYCARDRHWVLSAFDVWGQGTLVTVSS
VL: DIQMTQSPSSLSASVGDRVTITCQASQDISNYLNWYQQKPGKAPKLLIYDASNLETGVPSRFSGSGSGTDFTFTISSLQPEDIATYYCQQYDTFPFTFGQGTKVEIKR
notes: human IgG1; also called aTIM-3 IgG1 64-6
B3: anti-TIM-3 IgG1 antibody 66-6 (antibody, V domains shown)
VH: B2 VH with R31K, Y57S, R100L, H101D, W102Y, V103R, L104F, A106G
VL: DIQMTQSPSSLSASVGDRVTITCQASQDISNYLNWYQQKPGKAPKLLIYDASNLETGVPSRFSGSGSGTDFTFTISSLQPEDIATYYCQQFAAIPLTFGQGTKVEIKR
notes: human IgG1; The printed HC begins with M before EVQL; also called aTIM-3 IgG1 66-6
B4: anti-TIM-3 IgG1 antibody 64-39 (antibody, V domains shown)
VH: B2 VH with A50G, Y57G, R100L, H101D, W102Y, V103R, L104V, A106G
VL: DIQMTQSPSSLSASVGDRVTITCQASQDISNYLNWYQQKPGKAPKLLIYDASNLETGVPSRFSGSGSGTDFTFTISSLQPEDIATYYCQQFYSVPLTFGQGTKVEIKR
notes: human IgG1; The printed HC begins with M before EVQL; also called aTIM-3 IgG1 64-39
B5: anti-TIM-3 IgG1 antibody 64-32 (antibody, V domains shown)
VH: B2 VH with R31K, R100L, H101D, W102F, V103R, L104I, S105V, A106G
VL: B3 VL with A92N, A93T, I94V
notes: human IgG1; The printed HC begins with M before EVQL; also called aTIM-3 IgG1 64-32
B6: anti-TIM-3 IgG1 antibody 64-31 (antibody, V domains shown)
VH: EVQLVESGGGLVQPGGSLRLSCAASGFTFSAYAMHWVRQAPGKGLEWVSAINGNGGRTYYADSVKGRFTISRDNSKNTLYLQMNSLRAEDTAVYYCARDLTRTVPFAFDVWGQGTLVTVSS
VL: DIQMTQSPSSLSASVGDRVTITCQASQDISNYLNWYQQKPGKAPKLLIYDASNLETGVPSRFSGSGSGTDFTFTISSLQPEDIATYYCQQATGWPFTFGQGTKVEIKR
notes: human IgG1; The printed HC begins with M before EVQL; also called aTIM-3 IgG1 64-31

Residue numbers refer to the chain shown, from its start.

The target in the first test is T1, human TIM-3 (T-cell immunoglobulin …). Kind of test: SPR (Pioneer FE) or Octet (Red96e), IgG1 captured by anti-human Fc / AHC sensor, human TIM-3 analyte, 37 C. The source says:
(§1) In one typical example, the inventors prepared antibodies using the above HC and LC sequences with matching preceding numbers and tested the so prepared antibodies for TIM3 binding. […] All values are ×10⁻⁹M. anti-TIM-3 IgG1 antibodies were captured on the chip surface using anti-human Fc antibody (SPR) or AHC sensor (Octet), and human TIM-3 was the analyte.
A general note: Biolayer interferometry detects binding as a change in optical thickness at a sensor tip.
Broadly, the Kd is the free concentration of one partner at which half of the binding sites on the other are occupied at equilibrium, for simple one-to-one binding. In turn, B1 returned a Kd of 5.4 nM.

B2: the Kd turned out to be 2.5 nM.

For the molecule B3, the Kd stood at 7.01 nM.

For the molecule B4, the equilibrium dissociation constant (Kd) came out at 6.39 nM.

As for B5, the dissociation constant Kd is 0.92 nM.

Turning to B6, the affinity, expressed as Kd, was 36.5 nM.

A further test has the same target. Kind of test: ratio of KD at 37 C to KD at 25 C, SPR or Octet.
From the text: as §1
For B1, the “KD difference between 25° C. and 37° C. (fold)” value came to 7.61 fold.

For B2, the “KD difference between 25° C. and 37° C. (fold)” value was 5.43 fold.

With B3, the “KD difference between 25° C. and 37° C. (fold)” value was 4.15 fold.

For the molecule B4, the “KD difference between 25° C. and 37° C. (fold)” value is 4.18 fold.

Take B5: the “KD difference between 25° C. and 37° C. (fold)” value came to 2.36 fold.

Turning to B6, the “KD difference between 25° C. and 37° C. (fold)” value came out at 3.51 fold.

The target is the same in another test. Nature of the test: SPR (Pioneer FE) or Octet (Red96e), IgG1 captured by anti-human Fc / AHC sensor, human TIM-3 analyte, 25 C.
From the text: as §1
Molecule B1 came in with a dissociation constant (Kd) of 0.71 nM.

In turn, B2 returned a Kd of 0.46 nM.

B3 yielded a Kd of 1.69 nM.

On to B4, for which the dissociation constant (Kd) stood at 1.53 nM.

For the molecule B5, binding was put at a Kd of 0.39 nM.

Take B6: the Kd came out at 10.4 nM.

These data come from US20230287113A1 (NANTBIO, published 2023).
